According to article doi:10.1101/2021.03.22.436490:

Tests used:
[1] = target: Vibrio cholerae Chromosome 2 ParA (ParA2vc) (Vibrio cholerae); experiment: crystal structure
[2] = target: Vibrio cholerae Chromosome 2 ParA (ParA2vc) (Vibrio cholerae); experiment: crystal structure; remark: listed apart in the source
[3] = target: Vibrio cholerae Chromosome 2 ParA (ParA2vc) (Vibrio cholerae); experiment: negative-stain EM

Measured: stoichiometry N

Vibrio cholerae Chromosome 2 ParA (ParA2vc) (natural protein)
2: all assays above
